Measurements reported in the supplement of paper PMC9233669.
Fewer inactive variants are shown than the library holds.

Tests used:
biotinyl-Phe-oxazolone = assay: self-aminoacylation, catalytic enhancement (BFO) (fold over background); higher = more active; k-Seq, kA / k0A0; sequences stand for … in GGGAAUGGAUCCACAUCUACGAAUUC…UUCACUGCAGACUUGACGAAGCUG
Summary of the method: (§1)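 Catalytic enhancement equals the median kA over the uncatalyzed rate, the latter read from the low-activity peak of a bimodal Gaussian fit. Values of kA came from fitting each sequence's fraction reacted to a pseudo-first-order model, with 1000 bootstraps. Reacted RNA was captured with streptavidin and quantified by triplicate qPCR and Illumina sequencing after 90 minutes at room temperature with 2–1250 μM biotinyl-aminoacyl-oxazolone and 0.43 μM mutagenized RNA pools bearing a 21-nt variable region.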

biotinyl-Ile-oxazolone = assay: self-aminoacylation, catalytic enhancement (BIO) (fold over background); higher = more active; k-Seq, kA / k0A0; sequences stand for … in GGGAAUGGAUCCACAUCUACGAAUUC…UUCACUGCAGACUUGACGAAGCUG
Summary of the method: as §1

biotinyl-Met-oxazolone = assay: self-aminoacylation, catalytic enhancement (BMO) (fold over background); higher = more active; k-Seq, kA / k0A0; sequences stand for … in GGGAAUGGAUCCACAUCUACGAAUUC…UUCACUGCAGACUUGACGAAGCUG
Summary of the method: as §1

biotinyl-Val-oxazolone = assay: self-aminoacylation, catalytic enhancement (BVO) (fold over background); higher = more active; k-Seq, kA / k0A0; sequences stand for … in GGGAAUGGAUCCACAUCUACGAAUUC…UUCACUGCAGACUUGACGAAGCUG
Summary of the method: as §1

biotinyl-Leu-oxazolone = assay: self-aminoacylation, catalytic enhancement (BLO) (fold over background); higher = more active; k-Seq, kA / k0A0; sequences stand for … in GGGAAUGGAUCCACAUCUACGAAUUC…UUCACUGCAGACUUGACGAAGCUG
Summary of the method: as §1

biotinyl-Trp-oxazolone = assay: self-aminoacylation, catalytic enhancement (BWO) (fold over background); higher = more active; k-Seq, kA / k0A0; sequences stand for … in GGGAAUGGAUCCACAUCUACGAAUUC…UUCACUGCAGACUUGACGAAGCUG
Summary of the method: as §1

## AUUACCCUGGUAAGCGAGUGA [Fam2.1 aminoacylation ribozyme variant]
biotinyl-Phe-oxazolone
  self-aminoacylation: 42.1
biotinyl-Ile-oxazolone
  self-aminoacylation: 2.82
biotinyl-Met-oxazolone
  self-aminoacylation: 5.79
biotinyl-Val-oxazolone
  self-aminoacylation: 3.21
biotinyl-Leu-oxazolone
  self-aminoacylation: 4.55
biotinyl-Trp-oxazolone
  self-aminoacylation: 6.48

## CUACCUCAAACAAUCGGUUUG [Fam1A.1 aminoacylation ribozyme variant]
biotinyl-Phe-oxazolone
  self-aminoacylation: 2.48
biotinyl-Ile-oxazolone
  self-aminoacylation: 0.904
biotinyl-Met-oxazolone
  self-aminoacylation: 0.938
biotinyl-Val-oxazolone
  self-aminoacylation: 1.16
biotinyl-Leu-oxazolone
  self-aminoacylation: 0.715
biotinyl-Trp-oxazolone
  self-aminoacylation: 1.56

## AAGUUUCCUAGUAGUCGCAAG [Fam3.1 aminoacylation ribozyme variant]
biotinyl-Phe-oxazolone
  self-aminoacylation: 1.27
biotinyl-Ile-oxazolone
  self-aminoacylation: 1.12
biotinyl-Met-oxazolone
  self-aminoacylation: 1.2
biotinyl-Val-oxazolone
  self-aminoacylation: 1.44
biotinyl-Leu-oxazolone
  self-aminoacylation: 1.06
biotinyl-Trp-oxazolone
  self-aminoacylation: 0.668

## AUUAUCUUGGUCAUCGAGUGA [Fam2.1 aminoacylation ribozyme variant]
biotinyl-Phe-oxazolone
  self-aminoacylation: 12.4
biotinyl-Ile-oxazolone
  self-aminoacylation: 3.54
biotinyl-Met-oxazolone
  self-aminoacylation: 5.16
biotinyl-Val-oxazolone
  self-aminoacylation: 3.11
biotinyl-Leu-oxazolone
  self-aminoacylation: 5.73
biotinyl-Trp-oxazolone
  self-aminoacylation: 6.57

## AUUACCCGGGUCAUGGAGUGA [Fam2.1 aminoacylation ribozyme variant]
biotinyl-Phe-oxazolone
  self-aminoacylation: 25.8
biotinyl-Ile-oxazolone
  self-aminoacylation: 2.82
biotinyl-Met-oxazolone
  self-aminoacylation: 4.26
biotinyl-Val-oxazolone
  self-aminoacylation: 2.87
biotinyl-Leu-oxazolone
  self-aminoacylation: 4.59
biotinyl-Trp-oxazolone
  self-aminoacylation: 4.98

## ACUACUCUGGUCAUCGAGUGA [Fam2.1 aminoacylation ribozyme variant]
biotinyl-Phe-oxazolone
  self-aminoacylation: 36.2
biotinyl-Ile-oxazolone
  self-aminoacylation: 4.09
biotinyl-Met-oxazolone
  self-aminoacylation: 5.17
biotinyl-Val-oxazolone
  self-aminoacylation: 3.45
biotinyl-Leu-oxazolone
  self-aminoacylation: 8.12
biotinyl-Trp-oxazolone
  self-aminoacylation: 7.79

## AUUCAUCUAGGGCAUCGGGUG [Fam2.2 aminoacylation ribozyme variant]
biotinyl-Phe-oxazolone
  self-aminoacylation: 21.4
biotinyl-Ile-oxazolone
  self-aminoacylation: 2.81
biotinyl-Met-oxazolone
  self-aminoacylation: 3.45
biotinyl-Val-oxazolone
  self-aminoacylation: 2.97
biotinyl-Leu-oxazolone
  self-aminoacylation: 4.32
biotinyl-Trp-oxazolone
  self-aminoacylation: 2.7

## AUUCACCUAGAUCAACGGGUG [Fam2.2 aminoacylation ribozyme variant]
biotinyl-Phe-oxazolone
  self-aminoacylation: 25.3
biotinyl-Ile-oxazolone
  self-aminoacylation: 2.73
biotinyl-Met-oxazolone
  self-aminoacylation: 4.52
biotinyl-Val-oxazolone
  self-aminoacylation: 2.49
biotinyl-Leu-oxazolone
  self-aminoacylation: 5.41
biotinyl-Trp-oxazolone
  self-aminoacylation: 4.38

## AAUUUUGCUAUUAGUCGCAAG [Fam3.1 aminoacylation ribozyme variant]
biotinyl-Phe-oxazolone
  self-aminoacylation: 2.76
biotinyl-Ile-oxazolone
  self-aminoacylation: 1.98
biotinyl-Met-oxazolone
  self-aminoacylation: 1.71
biotinyl-Val-oxazolone
  self-aminoacylation: 1.63
biotinyl-Leu-oxazolone
  self-aminoacylation: 1.89
biotinyl-Trp-oxazolone
  self-aminoacylation: 1.85

## UAGUUUGCGAAUAGUCGCAAG [Fam3.1 aminoacylation ribozyme variant]
biotinyl-Phe-oxazolone
  self-aminoacylation: 2.28
biotinyl-Ile-oxazolone
  self-aminoacylation: 1.82
biotinyl-Met-oxazolone
  self-aminoacylation: 1.68
biotinyl-Val-oxazolone
  self-aminoacylation: 1.1
biotinyl-Leu-oxazolone
  self-aminoacylation: 1.75
biotinyl-Trp-oxazolone
  self-aminoacylation: 1.73

## AUUUUCCUGGUCAUCGAGUGA [Fam2.1 aminoacylation ribozyme variant]
biotinyl-Phe-oxazolone
  self-aminoacylation: 10.8
biotinyl-Ile-oxazolone
  self-aminoacylation: 4.2
biotinyl-Met-oxazolone
  self-aminoacylation: 8.02
biotinyl-Val-oxazolone
  self-aminoacylation: 4.13
biotinyl-Leu-oxazolone
  self-aminoacylation: 8.6
biotinyl-Trp-oxazolone
  self-aminoacylation: 9.4

## AUUAACCUGGUCAUCGAGGGA [Fam2.1 aminoacylation ribozyme variant]
biotinyl-Phe-oxazolone
  self-aminoacylation: 0.771
biotinyl-Ile-oxazolone
  self-aminoacylation: 1.53
biotinyl-Met-oxazolone
  self-aminoacylation: 1.76
biotinyl-Val-oxazolone
  self-aminoacylation: 1.3
biotinyl-Leu-oxazolone
  self-aminoacylation: 1.28
biotinyl-Trp-oxazolone
  self-aminoacylation: 1.99

## AUAUACCUAGGUCAUCGGGUG [Fam2.2 aminoacylation ribozyme variant]
biotinyl-Phe-oxazolone
  self-aminoacylation: 25.9
biotinyl-Ile-oxazolone
  self-aminoacylation: 2.65
biotinyl-Met-oxazolone
  self-aminoacylation: 3.97
biotinyl-Val-oxazolone
  self-aminoacylation: 2.74
biotinyl-Leu-oxazolone
  self-aminoacylation: 5.38
biotinyl-Trp-oxazolone
  self-aminoacylation: 4.16

## AUCCACCUAGGUCACCGGGUG [Fam2.2 aminoacylation ribozyme variant]
biotinyl-Phe-oxazolone
  self-aminoacylation: 40.4
biotinyl-Ile-oxazolone
  self-aminoacylation: 4.14
biotinyl-Met-oxazolone
  self-aminoacylation: 5.52
biotinyl-Val-oxazolone
  self-aminoacylation: 4.47
biotinyl-Leu-oxazolone
  self-aminoacylation: 6.1
biotinyl-Trp-oxazolone
  self-aminoacylation: 6.67

## AUUCACUUAGGUCAUCGUGUG [Fam2.2 aminoacylation ribozyme variant]
biotinyl-Phe-oxazolone
  self-aminoacylation: 0.821
biotinyl-Ile-oxazolone
  self-aminoacylation: 0.779
biotinyl-Met-oxazolone
  self-aminoacylation: 0.802
biotinyl-Val-oxazolone
  self-aminoacylation: 0.777
biotinyl-Leu-oxazolone
  self-aminoacylation: 0.869
biotinyl-Trp-oxazolone
  self-aminoacylation: 0.747

## CUACUUGAAACAAUCGGGCUG [Fam1A.1 aminoacylation ribozyme variant]
biotinyl-Phe-oxazolone
  self-aminoacylation: 1.26
biotinyl-Ile-oxazolone
  self-aminoacylation: 1.51
biotinyl-Met-oxazolone
  self-aminoacylation: 1.95
biotinyl-Val-oxazolone
  self-aminoacylation: 1.93
biotinyl-Leu-oxazolone
  self-aminoacylation: 1.83
biotinyl-Trp-oxazolone
  self-aminoacylation: 2.37

## AAGGUUGCUAGUAGUCGCAAG [Fam3.1 aminoacylation ribozyme variant]
biotinyl-Phe-oxazolone
  self-aminoacylation: 1.77
biotinyl-Ile-oxazolone
  self-aminoacylation: 1.18
biotinyl-Met-oxazolone
  self-aminoacylation: 1.3
biotinyl-Val-oxazolone
  self-aminoacylation: 1.07
biotinyl-Leu-oxazolone
  self-aminoacylation: 0.971
biotinyl-Trp-oxazolone
  self-aminoacylation: 1.3

## CUACUUCAAUCAAUCAGUCUG [Fam1A.1 aminoacylation ribozyme variant]
biotinyl-Phe-oxazolone
  self-aminoacylation: 16.5
biotinyl-Ile-oxazolone
  self-aminoacylation: 0.942
biotinyl-Met-oxazolone
  self-aminoacylation: 0.809
biotinyl-Val-oxazolone
  self-aminoacylation: 0.86
biotinyl-Leu-oxazolone
  self-aminoacylation: 0.946
biotinyl-Trp-oxazolone
  self-aminoacylation: 6.4

## AAAUUUGCUAAUAGGCGCAAG [Fam3.1 aminoacylation ribozyme variant]
biotinyl-Phe-oxazolone
  self-aminoacylation: 1.29
biotinyl-Ile-oxazolone
  self-aminoacylation: 1.41
biotinyl-Met-oxazolone
  self-aminoacylation: 1.28
biotinyl-Val-oxazolone
  self-aminoacylation: 1.04
biotinyl-Leu-oxazolone
  self-aminoacylation: 1.51
biotinyl-Trp-oxazolone
  self-aminoacylation: 1.25

## AAGAUAGCUAAUAGUCGCAAG [Fam3.1 aminoacylation ribozyme variant]
biotinyl-Phe-oxazolone
  self-aminoacylation: 2.4
biotinyl-Ile-oxazolone
  self-aminoacylation: 1.63
biotinyl-Met-oxazolone
  self-aminoacylation: 1.57
biotinyl-Val-oxazolone
  self-aminoacylation: 1.34
biotinyl-Leu-oxazolone
  self-aminoacylation: 1.82
biotinyl-Trp-oxazolone
  self-aminoacylation: 1.34

## AGGUUUGCUAAUAGUCCCAAG [Fam3.1 aminoacylation ribozyme variant]
biotinyl-Phe-oxazolone
  self-aminoacylation: 4.38
biotinyl-Ile-oxazolone
  self-aminoacylation: 0.901
biotinyl-Met-oxazolone
  self-aminoacylation: 0.915
biotinyl-Val-oxazolone
  self-aminoacylation: 0.872
biotinyl-Leu-oxazolone
  self-aminoacylation: 0.779
biotinyl-Trp-oxazolone
  self-aminoacylation: 1.97

## AUUACCCUGGGCGUCGAGUGA [Fam2.1 aminoacylation ribozyme variant]
biotinyl-Phe-oxazolone
  self-aminoacylation: 1.06
biotinyl-Ile-oxazolone
  self-aminoacylation: 1.04
biotinyl-Met-oxazolone
  self-aminoacylation: 1.73
biotinyl-Val-oxazolone
  self-aminoacylation: 1.44
biotinyl-Leu-oxazolone
  self-aminoacylation: 1.3
biotinyl-Trp-oxazolone
  self-aminoacylation: 1.04

## AUUACCCUGGUCAUCGCGUGG [Fam2.1 aminoacylation ribozyme variant]
biotinyl-Phe-oxazolone
  self-aminoacylation: 35.6
biotinyl-Ile-oxazolone
  self-aminoacylation: 2.8
biotinyl-Met-oxazolone
  self-aminoacylation: 3.88
biotinyl-Val-oxazolone
  self-aminoacylation: 3.14
biotinyl-Leu-oxazolone
  self-aminoacylation: 6.77
biotinyl-Trp-oxazolone
  self-aminoacylation: 5.28

## ACGGUUGCUAAUAGUCGCAAG [Fam3.1 aminoacylation ribozyme variant]
biotinyl-Phe-oxazolone
  self-aminoacylation: 2.51
biotinyl-Ile-oxazolone
  self-aminoacylation: 1.3
biotinyl-Met-oxazolone
  self-aminoacylation: 1.19
biotinyl-Val-oxazolone
  self-aminoacylation: 1.32
biotinyl-Leu-oxazolone
  self-aminoacylation: 1.31
biotinyl-Trp-oxazolone
  self-aminoacylation: 1.38

## CUAAUUCAAACAAUCGGUCUA [Fam1A.1 aminoacylation ribozyme variant]
biotinyl-Phe-oxazolone
  self-aminoacylation: 1.65
biotinyl-Ile-oxazolone
  self-aminoacylation: 0.612
biotinyl-Met-oxazolone
  self-aminoacylation: 0.549
biotinyl-Val-oxazolone
  self-aminoacylation: 0.593
biotinyl-Leu-oxazolone
  self-aminoacylation: 0.497
biotinyl-Trp-oxazolone
  self-aminoacylation: 0.635
